B2: ActRIIB-Fc homodimer (Fc fusion, UniProt Q13705 20-134, looked up)
chain: GRGEAETRECIYYNANWELERTNQSGLERCEGEQDKRLHCYASWRNSSGTIELVKKGCWLDDFNCYDRQECVATEENPQVYFCCCEGNFCNERFTHLPEAGGPEVTYEPPPTAPT
notes: also called ActRIIB-Fc:ActRIIB-Fc homodimer; ActRIIB homodimer; not shown: linker and Fc
B3: BMP6 (ligand, UniProt P22004 382-513, looked up)
chain: QQSRNRSTQSQDVARVSSASDYNSSELKTACRKHELYVSFQDLGWQDWIIAPKGYAANYCDGECSFPLNAHMNATNHAIVQTLVHLMNPEYVPKPCCAPTKLNAISVLYFDDNSNVILKKYRNMVVRACGCH
B5: activin A (ligand, UniProt P08476 311-426, looked up)
chain: GLECDGKVNICCKKQFFVSFKDIGWNDWIIAPSGYHANYCEGECPSHIAGTSGSSLSFHSTVINHYRMRGHSPFANLKSCCVPTKLRPMSMLYYDDGQNIIKKDIQNMIVEECGCS
notes: also called ActA
B8: activin B (ligand, UniProt P09529 293-407, looked up)
chain: GLECDGRTNLCCRQQFFIDFRLIGWNDWIIAPTGYYGNYCEGSCPAYLAGVPGSASSFHTAVVNQYRMRGLNPGTVNSCCIPTKLSTMSMLYFDDEYNIVKRDVPNMIVEECGCA

Assay in all cases: SPR (Biacore), Fc protein captured by anti-Fc antibody, ligand injected
On the technique in general: Surface plasmon resonance follows binding to a sensor surface in real time, without labels.

Test [1] deals with B2. Here is the method:
(§1) A Biacore™-based binding assay was used to compare ligand binding selectivity of the ALK4-Fc:ActRIIB-Fc heterodimeric complex described above with that of ActRIIB-Fc and ALK4-Fc homodimer complexes. The ALK4-Fc:ActRIIB-Fc heterodimer, ActRIIB-Fc homodimer, and ALK4-Fc homodimer were independently captured onto the system using an anti-Fc antibody. Ligands were injected and allowed to flow over the captured receptor protein. Results are summarized in the table below, in which ligand off-rates (kd) most indicative of effective ligand traps are denoted in bold font.

The target in test [2] is T1, ALK4-Fc:ActRIIB-Fc heterodimer (human, UniProt P36896 24-126; Q13705 20-134).
T1 construct: also called ALK4-Fc:ActRIIB-Fc heterodimeric complex; ALK4:ActRIIB heterodimer; not shown: linker and engineered Fc
T1 sequence 1: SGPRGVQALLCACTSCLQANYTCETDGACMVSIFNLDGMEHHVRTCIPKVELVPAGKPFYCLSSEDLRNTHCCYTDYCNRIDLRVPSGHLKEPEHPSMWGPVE
T1 sequence 2: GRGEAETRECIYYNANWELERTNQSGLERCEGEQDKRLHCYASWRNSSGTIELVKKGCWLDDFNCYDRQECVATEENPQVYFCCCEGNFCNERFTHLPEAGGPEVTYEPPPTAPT
Here is the method: as §1

Test [3] deals with B3. The protocol: as §1
Test [4] deals with B5. The protocol: as §1
Test [5] deals with B8. Here is the method:
as §1

B1: GDF3 (ligand, UniProt Q9NR23 251-364, looked up)
chain: AAIPVPKLSCKNLCHRHQLFINFRDLGWHKWIIAPKGFMANYCHGECPFSLTISLNSSNYAFMQALMHAVDPEIPQAVCIPTKLSPISMLYQDNNDNVILRHYEDMVVDECGCG
As to B1, in test [1], the affinity, expressed as Kd, was 1.5 nM; the koff – broadly, a measure of how fast the partners let go of each other – is 0.0022 s⁻¹; the kon (in general, a measure of how fast the partners come together) was determined as 1.4e+06 M⁻¹ s⁻¹. In addition, in test [2], the Kd – broadly, the free concentration of one partner at which half of the binding sites on the other are occupied at equilibrium, for simple one-to-one binding – came out at 4.9 nM; the koff is 0.017 s⁻¹; the kon worked out at 3.4e+06 M⁻¹ s⁻¹.

In test [3], B2 came in with a Kd of 0.19 nM, a koff of 0.0068 s⁻¹ and a kon of 3.2e+07 M⁻¹ s⁻¹. For the same molecule, in test [4], the Kd was found to be 0.019 nM, the koff is 0.00023 s⁻¹ and the on-rate (kon) is 1.2e+07 M⁻¹ s⁻¹. In test [5], this molecule yielded a Kd of 0.02 nM, a koff of 0.0001 s⁻¹ and a kon of 5.1e+06 M⁻¹ s⁻¹.

Consider B3, for which, in test [2], the Kd worked out at 2.7 nM, the koff amounted to 0.0055 s⁻¹ and the kon worked out at 2e+06 M⁻¹ s⁻¹.

B4: BMP10 (ligand, UniProt O95393 317-424, looked up)
chain: NAKGNYCKRTPLYIDFKEIGWDSWIIAPPGYEAYECRGVCNYPLAEHLTPTKHAIIQALVHLKNSQKASKACCVPTKLEPISILYLDKGVVTYKFKYEGMAVSECGCR
On to B4, for which, in test [1], the Kd worked out at 0.011 nM, the off-rate constant (koff) is 0.00026 s⁻¹ and the kon is 2.3e+07 M⁻¹ s⁻¹. In test [2], this molecule gave a Kd of 0.074 nM, an off-rate (koff) of 0.0041 s⁻¹ and a kon of 5.6e+07 M⁻¹ s⁻¹.

In the case of B5, in test [2], the Kd was 0.012 nM, the koff was 0.00015 s⁻¹ and the kon is 1.3e+07 M⁻¹ s⁻¹.

B6: GDF11 (ligand, UniProt O95390 299-407, looked up)
chain: NLGLDCDEHSSESRCCRYPLTVDFEAFGWDWIIAPKRYKANYCSGQCEYMFMQKYPHTHLVQQANPRGSAGPCCTPTKMSPINMLYFNDKQQIIYGKIPGMVVDRCGCS
notes: also called BMP11
B6: in test [1], the Kd is 0.002 nM, the koff is 0.00011 s⁻¹ and the kon was 5e+07 M⁻¹ s⁻¹. For the same molecule, in test [2], binding was put at a Kd of 0.003 nM, the koff was determined as 0.00011 s⁻¹ and the kon stood at 3.8e+07 M⁻¹ s⁻¹.

B7: BMP9 (ligand, UniProt Q9UK05 320-429, looked up)
chain: SAGAGSHCQKTSLRVNFEDIGWDSWIIAPKEYEAYECKGGCFFPLADDVTPTKHAIVQTLVHLKFPTKVGKACCVPTKLSPISVLYKDDMGVPTLKYHYEGMSVAECGCR
notes: also called GDF2
Consider B7, for which, in test [1], binding was put at a Kd of 0.077 nM, the koff worked out at 0.0011 s⁻¹ and the kon worked out at 1.4e+07 M⁻¹ s⁻¹. Moreover, the affinity in test [2], expressed as Kd, was 3.4 nM.

For B8, in test [2], binding was characterised by a dissociation constant (Kd) of 0.006 nM, the koff was 4e-05 s⁻¹ and the kon turned out to be 7.1e+06 M⁻¹ s⁻¹.

The values are drawn from patent US20200397865A1 (ACCELERON PHARMA, published 2020).
